In paper PMC6668832, “Structural basis for recognition of the tumor suppressor protein PTPN14 by the oncoprotein E7 of human papillomavirus” (PLoS Biology, 2019):

B1: PTP domain (residues 886–1187) of human PTPN14 (domain or fragment, UniProt Q15678 886-1187, looked up)
chain: VDATRVPMDERFRTLKKKLEEGMVFTEYEQIPKKKANGIFSTAALPENAERSRIREVVPYEENRVELIPTKENNTGYINASHIKVVVGGAEWHYIATQGPLPHTCHDFWQMVWEQGVNVIAMVTAEEEGGRTKSHRYWPKLGSKHSSATYGKFKVTTKFRTDSVCYATTGLKVKHLLSGQERTVWHLQYTDWPDHGCPEDVQGFLSYLEEIQSVRRHTNSMLEGTKNRHPPIVVHCSAGVGRTGVLILSELMIYCLEHNEKVEVPMMLRLLREQRMFMIQTIAQYKFVYQVLIQFLQNSRLI
notes: human PTPN14, catalytic PTP domain, residues 886-1187, untagged; also called PTPN14 PTP domain; nonreceptor-type protein tyrosine phosphatase 14; source: E. coli BL21(DE3) RIL, pET21a, purified (alone or copurified with E7)
B2: C-terminal domain of E7 from HPV1a (residues 39–93) (domain or fragment)
chain: LVSPQQPYAVVASCAYCEKLVRLTVLADHSAIRQLEELLLRSLNIVCPLCTLQRQ
notes: HPV1a E7, C-terminal domain, residues 39-93; Purified similarly to HPV18 E7, whose tag was removed with TEV; the complex mass of 80–85 kDa fits a cleaved tag; also called HPV1a E7 C-terminal domain; source: E. coli, MBP-modified pET28a, copurified with PTPN14 by mixing cell lysates
B3: C-terminal domain of E7 from HPV11 (residues 45–98) (domain or fragment)
chain: AQPLTQHYQILTCCCGCDSNVRLVVECTDGDIRQLQDLLLGTLNIVCPICAPKP
notes: HPV11 E7, C-terminal domain, residues 45-98; Purified similarly to HPV18 E7, whose tag was removed with TEV; the complex mass of 80–85 kDa fits a cleaved tag; also called HPV11 E7 C-terminal domain; source: E. coli, MBP-modified pET28a, copurified with PTPN14 by mixing cell lysates
B4: C-terminal domain of E7 from HPV16 (residues 45–98) (domain or fragment)
chain: AEPDRAHYNIVTFCCKCDSTLRLCVQSTHVDIRTLEDLLMGTLGIVCPICSQKP
notes: HPV16 E7, C-terminal domain, residues 45-98; Purified similarly to HPV18 E7, whose tag was removed with TEV; the complex mass of 80–85 kDa fits a cleaved tag; also called HPV16 E7 C-terminal domain; source: E. coli, MBP-modified pET28a, copurified with PTPN14 by mixing cell lysates
B6: C-terminal domain (residues 54–105) of HPV18 E7, His6-MBP tag removed (domain or fragment)
chain: AEPQRHTMLCMCCKCEARIKLVVESSADDLRAFQQLFLNTLSFVCPWCASQQ
notes: HPV18 E7, C-terminal domain, residues 54-105; Homodimer by SEC-MALS; one zinc ion per monomer; also called HPV18 E7 C-terminal domain; HPV18 E7(54–105); source: E. coli BL21(DE3) RIL, modified pET28a, purified (Ni-NTA, TEV, second Ni-NTA, HiTrap Q, Superdex 75); not shown: His6, N-terminal, cleaved; MBP, N-terminal, cleaved
B7: PTP domain of PTPN21 (residues 873–1174) (domain or fragment, human, UniProt Q16825 873-1174, looked up)
chain: EVATRATNDERCKILEQRLEQGMVFTEYERILKKRLVDGECSTARLPENAERNRFQDVLPYDDVRVELVPTKENNTGYINASHIKVSVSGIEWDYIATQGPLQNTCQDFWQMVWEQGIAIIAMVTAEEEGGREKSFRYWPRLGSRHNTVTYGRFKITTRFRTDSGCYATTGLKMKHLLTGQERTVWHLQYTDWPEHGCPEDLKGFLSYLEEIQSVRRHTNSTSDPQSPNPPLLVHCSAGVGRTGVVILSEIMIACLEHNEVLDIPRVLDMLRQQRMMLVQTLCQYTFVYRVLIQFLKSSRLI
notes: human PTPN21, PTP domain, residues 873-1174; also called PTPN21 PTP domain; PTPD1; source: E. coli, modified pPRoEX HTa, purified (Ni-NTA, TEV, second Ni-NTA); not shown: His10, N-terminal, cleaved; green fluorescent protein, N-terminal, cleaved

Legend:
[1] = target: B6; assay: SEC-MALS; Superdex 75 10/300 GL; 50 mM Tris-HCl pH 7.5, 200 mM NaCl, 2 mM dithiothreitol; 6 mg/mL E7 C-terminal domain, 3 mg/mL PTP domain or copurified complex; conditions: both partners purified
[2] = target: B2; assay: as above; conditions: both partners purified
[3] = target: B4; assay: as above; conditions: both partners purified
[4] = target: B3; assay: as above; conditions: both partners purified
[5] = target: C-terminal domain of E7 from HPV38 (residues 45–100) (human papillomavirus 38 (HPV38)); assay: as above
C-terminal domain of E7 from HPV38 (residues 45–100) (human papillomavirus 38 (HPV38)), sequence (Q80908 45-100 limits assumed): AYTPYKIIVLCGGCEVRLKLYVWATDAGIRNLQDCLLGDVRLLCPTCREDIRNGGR

[6] = target: C-terminal domain of E7 from HPV4 (residues 44–100) (human papillomavirus 4 (HPV4)); assay: as above
C-terminal domain of E7 from HPV4 (residues 44–100) (human papillomavirus 4 (HPV4)), sequence (Q07857 44-100 limits assumed): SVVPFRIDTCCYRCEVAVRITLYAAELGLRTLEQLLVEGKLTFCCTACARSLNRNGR

[7] = target: B1; assay: SEC; copurified from mixed E. coli lysates (Ni-NTA, TEV, second Ni-NTA); final HiLoad 26/600 Superdex 75 pg gel filtration, fractions on SDS-PAGE with Coomassie staining; conditions: both partners purified
[8] = target: B1; assay: ITC; 25 °C, VP-ITC; PTP domain titrated into MBP-tagged HPV18 E7 (0.2 mM into 10 μM in Fig 1B); 20 mM Tris-HCl pH 7.5, 100 mM NaCl, 10 mM β-mercaptoethanol; one-to-one model; triplicate; conditions: both partners purified
[9] = target: B7; assay: as above; conditions: both partners purified
[10] = target: the molecule itself; assay: SEC-MALS; Superdex 75 10/300 GL; 50 mM Tris-HCl pH 7.5, 200 mM NaCl, 2 mM dithiothreitol; 6 mg/mL E7 C-terminal domain, 3 mg/mL PTP domain or copurified complex

Question: Which results are given for B1?
Answer: stoichiometry N [1]: 1 PTPN14 per E7 (2:2); stoichiometry N [2]: 1 PTPN14 per E7 (2:2); stoichiometry N [3]: 1 PTPN14 per E7 (2:2); stoichiometry N [4]: 1 PTPN14 per E7 (2:2); stoichiometry N (PTPN14 per E7 (2:2)) [5]: 1; stoichiometry N (PTPN14 per E7 (2:2)) [6]: 1

Question: Does B2 bind [7]?
Answer: binds

Question: Does B3 bind [7]?
Answer: binds

Question: Does B4 bind [7]?
Answer: binds

B5: MBP-tagged HPV18 E7 C-terminal domain (residues 54–105) (domain or fragment)
chain: AEPQRHTMLCMCCKCEARIKLVVESSADDLRAFQQLFLNTLSFVCPWCASQQ
notes: HPV18 E7, C-terminal domain, residues 54-105; also called His6–MBP-tagged C-terminal domain of HPV18 E7; source: E. coli BL21(DE3) RIL, modified pET28a, purified; not shown: His6, N-terminal, kept; MBP, N-terminal, kept
Question: With B5 as the binder, how does the Kd [8] read?
Answer: 18.2 nM

Question: What about the Kd [9] of the same binder?
Answer: 5.81 nM

Question: How did the “stoichiometry N” value [10] turn out when B6 was run?
Answer: 2

Question: For B7, which “stoichiometry N” value [1] is on record?
Answer: 1 PTPN21 per E7 (2:2)
